In PMC2903825:

Target: unmodified guanylate-binding protein 1 (hGBP1) (human) (UniProt P32455)
Assay: concentration-dependent GTPase activity

Q: “unmodified guanylate-binding protein 1 (hGBP1) (from UniProt P32455 1-592) (enzyme)” was tested. Which Kd did it give?
A: 4 µM
